Source: patent publication US20140248710, “THREE-COMPONENT BIOSENSORS FOR DETECTING MACROMOLECULES AND OTHER ANALYTES” (Mediomics LLC, published 2014)

How the values were obtained:
Thrombin [1] = target: T1, Thrombin (UniProt P00734;P00734 P00734:328-363,P00734:364-622); experiment: FP; nanomolar range only
[2] = target: Single-stranded DNA binding protein (SSB) (Escherichia coli, UniProt P0AGE0 P0AGE0:2-178); experiment: FP; nanomolar concentrations, similar range as thrombin; conditions: tags: Sigma; chain copies: 4; label: 5' fluorescein
Thrombin [3] = target: T1, Thrombin; experiment: competition; affinity relative to THR2
Thrombin [4] = target: T1, Thrombin; experiment: competition; does not compete with THR2 (binds the other exosite); poor competitor of beacon complex compared with bivalent constructs
Thrombin [5] = target: T1, Thrombin; experiment: fluorescence intensity titration; 50 mM Tris pH 7.5, 100 mM NaCl, 5 mM KCl, 1 mM MgCl2
Thrombin [6] = target: T1, Thrombin; experiment: EMSA; high affinity; among most efficient competitors (FIG. 16)

Single-stranded DNA binding protein (SSB), sequence (P0AGE0 2-178, one chain of several): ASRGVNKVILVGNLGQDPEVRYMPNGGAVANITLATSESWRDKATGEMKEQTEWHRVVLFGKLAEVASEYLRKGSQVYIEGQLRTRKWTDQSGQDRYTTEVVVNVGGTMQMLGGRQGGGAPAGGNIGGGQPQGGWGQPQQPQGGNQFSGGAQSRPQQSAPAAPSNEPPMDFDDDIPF

B1: THR1 (60-18 [29]) (ssDNA)
DNA: AGTCCGTGGTAGGGCAGGTTGGGGTGACT
Thrombin [1]
  binding result: binds
[2]
  binding result: binds

B2: THR4 (G15D) (ssDNA)
DNA: GGTTGGTGTGGTTGG
Thrombin [3]
  binding signal: 1.7 fold

B3: THR3 (60-18 [29]) (ssDNA)
DNA: AGTCCGTGGTAGGGCAGGTTGGGGTGACT
Thrombin [4]
  binding result: binds

B4: THR2 (G15D) (ssDNA)
DNA: GGTTGGTGTGGTTGG
Thrombin [5]
  Kd: 6.3 nM

B5: THR18/THR19 bivalent (structured_DNA)
DNA 1: GGTTGGTGTGGTTGGTTTTTTTTTTTTTTTTTTTTTTTTTTTCTGTCGTTAGTGAAGGTT
DNA 2: AACCTTCACTAACGACAGTTTTTTTTTTTTTTTTTTTTTTTTTTTAGTCCGTGGTAGGGCAGGTTGGGGTGACT
Thrombin [6]
  binding result: binds

B6: THR16/THR17 bivalent (structured_DNA)
DNA 1: GGTTGGTGTGGTTGGTTTTTTTTTTTTTTTTTCTGTCGTTAGTGAAGGTT
DNA 2: AACCTTCACTAACGACAGTTTTTTTTTTTTTTTTTAGTCCGTGGTAGGGCAGGTTGGGGTGACT
Thrombin [6]
  binding result: binds
